According to patent US20170233485A1 (Biogen, published 2017):
Where “and” joins values, the source holds several entries; their conditions need not be identical. Identical values can stand only once.

T1: mouse CD40 (cell surface) (mouse, UniProt P27512 20-289)
T1 construct: whole, on cells; also called murine CD40
T1 sequence (looked up): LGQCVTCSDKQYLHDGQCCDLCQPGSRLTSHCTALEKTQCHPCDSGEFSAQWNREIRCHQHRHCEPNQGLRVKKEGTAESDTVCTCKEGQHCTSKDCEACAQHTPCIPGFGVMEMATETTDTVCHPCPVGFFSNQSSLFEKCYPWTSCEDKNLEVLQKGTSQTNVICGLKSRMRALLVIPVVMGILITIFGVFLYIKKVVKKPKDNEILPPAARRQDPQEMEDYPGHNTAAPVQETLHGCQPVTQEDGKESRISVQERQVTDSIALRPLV

T2: human FcγR CD32a R131-GST fusion protein (human, UniProt P12318 34-217, limits assumed)
T2 construct: FcγR-GST fusion protein on anti-GST acceptor beads; also called FcγRIIa; not shown: GST
T2 sequence (looked up): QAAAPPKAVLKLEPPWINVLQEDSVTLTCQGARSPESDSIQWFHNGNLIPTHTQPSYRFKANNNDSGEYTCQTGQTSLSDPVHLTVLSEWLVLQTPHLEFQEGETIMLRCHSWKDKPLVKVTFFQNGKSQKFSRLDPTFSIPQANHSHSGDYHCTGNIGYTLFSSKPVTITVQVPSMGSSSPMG

T3: human FcγR CD32b-GST fusion protein (human, UniProt P31994 43-217, limits assumed)
T3 construct: FcγR-GST fusion protein on anti-GST acceptor beads; also called FcγRIIB; not shown: GST
T3 sequence (looked up): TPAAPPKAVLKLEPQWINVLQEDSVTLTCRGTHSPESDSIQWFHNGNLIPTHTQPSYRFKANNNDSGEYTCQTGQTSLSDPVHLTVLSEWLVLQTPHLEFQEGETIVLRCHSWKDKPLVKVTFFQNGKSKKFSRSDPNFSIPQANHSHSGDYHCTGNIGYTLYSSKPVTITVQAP


How the values were obtained:
[1] = biological target: T4, human CD40 (cell surface) (human, UniProt P25942 20-277); assay: cell-based or functional assay
T4 sequence (P25942 20-277 limits assumed): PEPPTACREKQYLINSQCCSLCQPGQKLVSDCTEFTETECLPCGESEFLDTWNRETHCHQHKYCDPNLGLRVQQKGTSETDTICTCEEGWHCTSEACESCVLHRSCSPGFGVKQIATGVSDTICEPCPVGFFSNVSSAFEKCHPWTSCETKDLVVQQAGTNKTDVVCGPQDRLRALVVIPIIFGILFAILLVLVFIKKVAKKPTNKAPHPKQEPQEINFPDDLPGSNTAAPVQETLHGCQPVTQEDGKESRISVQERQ

[2] = biological target: T4, human CD40 (cell surface); assay: FACS, A647-conjugated mAb on primary B cells in human whole blood
[3] = biological target: T1, mouse CD40 (cell surface); assay: flow cytometry on 293E transfected cells
human C1q = biological target: T5, human C1q (human, UniProt P02745 23-245; P02746 28-253; P02747 29-245); assay: ELISA, titrated antibody coated, human C1q detected
T5 construct: the three subunits are from general knowledge; also called Complement protein C1q
T5 sequence (P02745 23-245 limits assumed, chain 1 of 3): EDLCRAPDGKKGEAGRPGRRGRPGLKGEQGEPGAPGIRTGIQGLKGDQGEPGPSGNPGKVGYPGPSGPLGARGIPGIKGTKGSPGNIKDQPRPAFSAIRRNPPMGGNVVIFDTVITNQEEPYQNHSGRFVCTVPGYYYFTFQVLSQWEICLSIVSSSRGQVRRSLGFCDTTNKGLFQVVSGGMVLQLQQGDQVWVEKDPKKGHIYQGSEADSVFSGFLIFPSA
T5 sequence (P02746 28-253 limits assumed, chain 2 of 3): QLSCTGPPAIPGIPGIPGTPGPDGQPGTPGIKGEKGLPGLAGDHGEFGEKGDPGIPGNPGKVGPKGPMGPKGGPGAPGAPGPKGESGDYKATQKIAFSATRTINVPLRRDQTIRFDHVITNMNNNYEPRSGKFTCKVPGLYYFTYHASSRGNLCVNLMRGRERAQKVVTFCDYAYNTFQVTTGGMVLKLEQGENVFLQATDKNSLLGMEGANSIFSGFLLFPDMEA
T5 sequence (P02747 29-245 limits assumed, chain 3 of 3): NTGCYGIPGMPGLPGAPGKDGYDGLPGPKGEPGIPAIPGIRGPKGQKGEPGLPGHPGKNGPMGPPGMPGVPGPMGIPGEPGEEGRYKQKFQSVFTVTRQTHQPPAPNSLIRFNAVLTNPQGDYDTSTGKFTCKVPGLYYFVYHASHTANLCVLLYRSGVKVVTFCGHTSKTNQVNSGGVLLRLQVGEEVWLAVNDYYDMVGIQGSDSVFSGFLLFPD
Description: It was also determined that Exemplary Anti-CD40 Antibody 1 is not capable of activating complement by testing its binding to C1q. The assay (adapted from Idusogie et al., J. Immunol., 164:4178-84 (2000)) was conducted in an ELISA format where titrations of the test antibodies are coated in the wells and binding of human C1q is detected with chicken IgY anti-human C1q (custom reagent from Ayes Labs) followed by a donkey F(ab′) 2 anti-chicken IgY HRP conjugate.

[4] = biological target: T6, human FcγR CD16a V158-GST fusion protein (human, UniProt P08637 17-208, limits assumed); assay: ALPHAscreen competition: test antibody displaces biotinylated IgG1 from FcγR-GST
T6 construct: FcγR-GST fusion protein on anti-GST acceptor beads; also called FcγRIIIA; not shown: GST
T6 sequence (P08637 17-208 F176V limits assumed): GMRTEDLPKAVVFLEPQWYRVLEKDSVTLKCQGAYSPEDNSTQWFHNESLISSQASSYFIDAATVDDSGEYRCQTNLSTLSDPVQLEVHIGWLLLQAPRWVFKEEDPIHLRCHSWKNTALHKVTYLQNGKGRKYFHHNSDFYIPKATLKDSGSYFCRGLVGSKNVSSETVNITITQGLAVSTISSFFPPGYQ
Description: (§1) In order to confirm the expected reduced binding profile of Exemplary Anti-CD40 Antibody 1 to human FcγR, relative binding affinities were measured using Amplified Luminescent Proximity Homogeneous Assay (ALPHAscreen) technology from Perkin Elmer. With this technology, binding pairs are immobilized onto “donor” and “acceptor” beads. Upon laser excitation, donor beads release singlet oxygen that reacts with acceptor beads in close proximity (≦200 nm) generating a cascade of events that ultimately results in fluorescence emission at 520-620 nm.
(§2) The chimeric AKH3 antibody constructs with the human IgG1 and aglycosyl IgG4P/G1 Fc regions were included in the FcγR and C1q assays as Fc competent and Fc-effectorless comparators, respectively. The assay was performed in a competitive format in which binding of test antibodies to FcγR disrupts the interaction of biotinylated IgG1 and FcγR-GST fusion protein immobilized on Streptavidin donor beads and anti-GST acceptor beads respectively. The plates were read using an Envision plate reader (Perkin Elmer) and the resulting relative fluorescence units (RFU) were plotted versus the concentration of test IgG as shown in FIG. 26.

[5] = biological target: T7, human FcγR CD64-GST fusion protein (human, UniProt P12314 16-292, limits assumed); assay: as above
T7 construct: FcγR-GST fusion protein on anti-GST acceptor beads; also called FcγRI; not shown: GST
T7 sequence (P12314 16-292 limits assumed): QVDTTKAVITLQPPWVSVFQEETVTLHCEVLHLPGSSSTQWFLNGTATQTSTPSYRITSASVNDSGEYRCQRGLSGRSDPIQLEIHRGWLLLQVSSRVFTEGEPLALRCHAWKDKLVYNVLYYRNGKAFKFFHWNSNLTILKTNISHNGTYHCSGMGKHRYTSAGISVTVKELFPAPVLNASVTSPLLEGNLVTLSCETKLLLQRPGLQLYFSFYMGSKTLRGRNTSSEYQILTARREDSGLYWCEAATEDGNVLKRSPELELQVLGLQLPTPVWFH
Description: as §1, §2

[6] = biological target: T2, human FcγR CD32a R131-GST fusion protein; assay: as above
Description: as §1, §2

[7] = biological target: T3, human FcγR CD32b-GST fusion protein; assay: as above
Description: as §1, §2

[8] = biological target: T8, human CD40 H78Q, full length, on 293E cells (human, UniProt P25942 20-277); assay: binding to CD40 SNP variants expressed on 293E cells (data not shown)
T8 construct: also called CN916
T8 sequence (P25942 20-277 H78Q limits assumed): as the sequence (P25942 20-277 limits assumed) above, with H59Q counted along it
Text: The prevalence of these SNPs is quite rare, believed to be at or below the 3% range. Exemplary Anti-CD40 Antibody 1 bound to 6 of the CD40 proteins encoded by DNA sequences containing SNPs comparably to WT CD40, but more weakly to H78Q and R90W (reduced plateau) and not quantifiably to C77F (data not shown).

IC50, inhibition of CD40L+ Jurkat (D1.1) T cell stimulation of primary human B cells (ICAM-1/CD54 up-regulation, flow cytometry), five normal donors [1]	EC50 [2]	binding result [3]	binding result (human C1q)	fold reduction of binding against WT IgG1 (chAKH3 IgG1) [4]	fold reduction of binding against WT IgG1 (chAKH3 IgG1) [5]	fold reduction of binding against WT IgG1 (chAKH3 IgG1) [6]	fold reduction of binding against WT IgG1 (chAKH3 IgG1) [7]	binding result [8]	Binder
11 ng/mL and 0.07 nM	0.5 nM	–	–	–	–	–	–	–	Agly hAKH3 IgG4P/IgG1 (antibody, V domains shown) VH: EVQLVQSGAEVKKPGASVKVSCKASGYTFTTFPIEWVRQAPGQGLEWMGNFHPYNDDTKYNEKFKGRVTLTADKSTSTAYMELSRLRSEDTAVYYCARRGKLPFDSWGQGTTVTVSS VL: DIQMTQSPSSLSASVGDRVTISCRASQDISNYLNWYQQKPGKVPKLLIYFTSRLRSGVPSRFSGSGSGTDYTLTISSLQPEDVATYYCQQDRKLPWTFGQGTKLEIK
–	–	no binding	no binding	~200 fold	~150 fold	~5 fold	~5 fold	binds	Exemplary Anti-CD40 Antibody 1 (antibody, human IgG4 S228P, kappa, Alexa647 conjugate in some whole-blood assays; N-linked glycan on the heavy chain; neither is carried by the letters., Humanized IgG4/kappa with S228P (Kabat); also called hAKH3 IgG4P; AKH3 IgG4P; copies: 2 + 2) heavy: not shown light: DIQMTQSPSSLSASVGDRVTISCRASQDISNYLNWYQQKPGKVPKLLIYFTSRLRSGVPSRFSGSGSGTDYTLTISSLQPEDVATYYCQQDRKLPWTFGQGTKLEIKRTVAAPSVFIFPPSDEQLKSGTASVVCLLNNFYPREAKVQWKVDNALQSGNSQESVTEQDSKDSTYSLSSTLTLSKADYEKHKVYACEVTHQGLSSPVTKSFNRGEC
